Measured values from US20260240959A1, “METHODS FOR IN VIVO EDITING OF KLKB1” (INTELLIA THERAPEUTICS, INC., priority 2022, published 2026).
In the oligonucleotide strings, read from the 5' end, every base follows the letter of its sugar. An asterisk marks phosphorothioate; unmarked linkages are phosphodiester. Other units and linkages are bracketed, terminal groups are in braces. A string of capitals states the bases alone. m = 2'-O-methyl; r = 2'-OH (RNA)

Tested on: plasma kallikrein
Assay: Plasma kallikrein activity in cynomolgus monkeys
Assay type: in vivo, cynomolgus monkey
Settings: for Kallikrein Activity (% of basal activity), Mean: n=3
Description: Cynomolgus monkeys were treated in cohorts of n=3. This study was conducted with LNP formulations according to Example 1. […]. Animals were dosed at 1.5, 3, or 6 mg per kg doses based on total RNA cargo. Indel formation (percent editing) was measured by NGS. Total kallikrein activity and plasma kallikrein protein level were measured as described above. […]

B1: G013901: cynomolgus specific KLKB1 guide RNA (SEQ ID NO: 409); dosed as LNP formulation with Cas9 mRNA (nucleic acid)
guide: mG*mG*mA*rUrUrArCrArUrArUrGrGrGrArCrArCrArArGrUrUrUrUrArGrAmGmCmUmAmGmAmAmAmUmAmGmCrArArGrUrUrArArArArUrArArGrGrCrUrArGrUrCrCrGrUrUrArUrCrAmAmCmUmUmGmAmAmAmAmAmGmUmGmGmCmAmCmCmGmAmGmUmCmGmGmUmGmCmU*mU*mU*mU
durability of response in NHPs (cynomolgus monkey, in vivo): durable through one year
Kallikrein Activity (% of basal activity), Mean (1.5 mpk, Day 7): 67.8 % of basal activity
Kallikrein Activity (% of basal activity), Mean (1.5 mpk, Day 14): 31.1 % of basal activity
Kallikrein Activity (% of basal activity), Mean (1.5 mpk, Day 28): 26.8 % of basal activity
Kallikrein Activity (% of basal activity), Mean (1.5 mpk, Day 42): 19.8 % of basal activity
Kallikrein Activity (% of basal activity), Mean (1.5 mpk, Day 56): 8.8 % of basal activity
Kallikrein Activity (% of basal activity), Mean (1.5 mpk, Day 70): 6 % of basal activity
Kallikrein Activity (% of basal activity), Mean (1.5 mpk, Day 84): 10.6 % of basal activity
Kallikrein Activity (% of basal activity), Mean (1.5 mpk, Day 105): 23.3 % of basal activity
Kallikrein Activity (% of basal activity), Mean (1.5 mpk, Day 119): 12.2 % of basal activity
Kallikrein Activity (% of basal activity), Mean (1.5 mpk, Day 147): 11.9 % of basal activity
Kallikrein Activity (% of basal activity), Mean (1.5 mpk, Day 161): 21 % of basal activity
Kallikrein Activity (% of basal activity), Mean (1.5 mpk, Day 180): 19.2 % of basal activity
Kallikrein Activity (% of basal activity), Mean (1.5 mpk, Day 238): 16.6 % of basal activity
Kallikrein Activity (% of basal activity), Mean (1.5 mpk, Day 252): 19.1 % of basal activity
Kallikrein Activity (% of basal activity), Mean (1.5 mpk, Day 266): 13.9 % of basal activity
Kallikrein Activity (% of basal activity), Mean (1.5 mpk, Day 280): 17.5 % of basal activity
Kallikrein Activity (% of basal activity), Mean (1.5 mpk, Day 294): 17 % of basal activity
Kallikrein Activity (% of basal activity), Mean (1.5 mpk, Day 308): 18.2 % of basal activity
Kallikrein Activity (% of basal activity), Mean (1.5 mpk, Day 326): 13.3 % of basal activity
Kallikrein Activity (% of basal activity), Mean (1.5 mpk, Day 333): 15.9 % of basal activity
Kallikrein Activity (% of basal activity), Mean (1.5 mpk, Day 347): 16.9 % of basal activity
Kallikrein Activity (% of basal activity), Mean (1.5 mpk, Day 365): 24.1 % of basal activity
Kallikrein Activity (% of basal activity), Mean (3 mpk, Day 7): 42.8 % of basal activity
Kallikrein Activity (% of basal activity), Mean (3 mpk, Day 14): 15.9 % of basal activity
Kallikrein Activity (% of basal activity), Mean (3 mpk, Day 28): 10.6 % of basal activity
Kallikrein Activity (% of basal activity), Mean (3 mpk, Day 42): 8.6 % of basal activity
Kallikrein Activity (% of basal activity), Mean (3 mpk, Day 56): 3.4 % of basal activity
Kallikrein Activity (% of basal activity), Mean (3 mpk, Day 70): 3 % of basal activity
Kallikrein Activity (% of basal activity), Mean (3 mpk, Day 84): 4.2 % of basal activity
Kallikrein Activity (% of basal activity), Mean (3 mpk, Day 105): 6 % of basal activity
Kallikrein Activity (% of basal activity), Mean (3 mpk, Day 119): 3.4 % of basal activity
Kallikrein Activity (% of basal activity), Mean (3 mpk, Day 147): 4.5 % of basal activity
Kallikrein Activity (% of basal activity), Mean (3 mpk, Day 161): 6 % of basal activity
Kallikrein Activity (% of basal activity), Mean (3 mpk, Day 180): 4.7 % of basal activity
Kallikrein Activity (% of basal activity), Mean (3 mpk, Day 238): 4.7 % of basal activity
Kallikrein Activity (% of basal activity), Mean (3 mpk, Day 252): 8.2 % of basal activity
Kallikrein Activity (% of basal activity), Mean (3 mpk, Day 266): 8.9 % of basal activity
Kallikrein Activity (% of basal activity), Mean (3 mpk, Day 280): 6.8 % of basal activity
Kallikrein Activity (% of basal activity), Mean (3 mpk, Day 294): 7.9 % of basal activity
Kallikrein Activity (% of basal activity), Mean (3 mpk, Day 308): 7.4 % of basal activity
Kallikrein Activity (% of basal activity), Mean (3 mpk, Day 326): 5.5 % of basal activity
Kallikrein Activity (% of basal activity), Mean (3 mpk, Day 333): 6.8 % of basal activity
Kallikrein Activity (% of basal activity), Mean (3 mpk, Day 347): 4.1 % of basal activity
Kallikrein Activity (% of basal activity), Mean (3 mpk, Day 365): 10 % of basal activity
Kallikrein Activity (% of basal activity), Mean (6 mpk, Day 7): 18.2 % of basal activity
Kallikrein Activity (% of basal activity), Mean (6 mpk, Day 14): 5.3 % of basal activity
Kallikrein Activity (% of basal activity), Mean (6 mpk, Day 28): 3.9 % of basal activity
Kallikrein Activity (% of basal activity), Mean (6 mpk, Day 42): 3.6 % of basal activity
Kallikrein Activity (% of basal activity), Mean (6 mpk, Day 56): 4.2 % of basal activity
Kallikrein Activity (% of basal activity), Mean (6 mpk, Day 70): 3.9 % of basal activity
Kallikrein Activity (% of basal activity), Mean (6 mpk, Day 84): 4.7 % of basal activity
Kallikrein Activity (% of basal activity), Mean (6 mpk, Day 105): 4.7 % of basal activity
Kallikrein Activity (% of basal activity), Mean (6 mpk, Day 119): 3 % of basal activity
Kallikrein Activity (% of basal activity), Mean (6 mpk, Day 147): 3 % of basal activity
Kallikrein Activity (% of basal activity), Mean (6 mpk, Day 161): 5.6 % of basal activity
Kallikrein Activity (% of basal activity), Mean (6 mpk, Day 180): 5 % of basal activity
Kallikrein Activity (% of basal activity), Mean (6 mpk, Day 238): 3.2 % of basal activity
Kallikrein Activity (% of basal activity), Mean (6 mpk, Day 252): 3.1 % of basal activity
Kallikrein Activity (% of basal activity), Mean (6 mpk, Day 266): 2.7 % of basal activity
Kallikrein Activity (% of basal activity), Mean (6 mpk, Day 280): 3 % of basal activity
Kallikrein Activity (% of basal activity), Mean (6 mpk, Day 294): 2.9 % of basal activity
Kallikrein Activity (% of basal activity), Mean (6 mpk, Day 308): 3 % of basal activity
Kallikrein Activity (% of basal activity), Mean (6 mpk, Day 326): 3.5 % of basal activity
Kallikrein Activity (% of basal activity), Mean (6 mpk, Day 333): 3.3 % of basal activity
